Experimental data: patent publication US20250213627A1, “RECOMBINANT MICROORGANISM-BASED METHODS AND COMPOSITIONS FOR TREATMENT OF DISEASE” (Baylor College of Medicine, priority 2021, published 2025)

Target: other channels
Assay: cell-based or functional assay

B1: synthetic ShK-235 (peptide)
peptide: RSCIDTIPKSRCTAFKCKHSIKYRLSFCRKTCGTCA
modifications: here or on the partner: 3 disulfide bonds (oxidatively folded synthetic peptide)
B1 was tested, and the selectivity for Kv1.3 over other channels (whole-cell patch-clamp) was > 2200 fold.
